Laboratory results: patent US10925971B2, “Methods of treating PRLR positive breast cancer” (Regeneron Pharmaceuticals, Inc., priority 2016, dated 2021)
Where two headings read alike, the source gives them in different places.

Assays:
[1] = tested on: MCF7/hPRLR (MCF7/PRLR) cells; test: In vitro cell viability (cell kill) assay, nuclear counts; type: cell-based, human; conditions: Table 20
From the text: (§1) PRLR-overexpressing cells, including HEK293, PC3, MCF7 and NCI-N87, were generated to assess the ability of anti-PRLR conjugated antibodies to reduce cell viability. For comparative purposes, PC3 and T47D cells with overexpressed ErbB2 were also generated, as well as an MCF7 cell line over-expressing both hPRLR and hErbB2. Briefly, Lipofectamine® 2000-mediated transfection methodology was utilized to generate HEK293 cells expressing human PRLR (HEK293/hPRLR) or human ErbB2 (HEK293/hErbB2). Lipofectamine LTX with Plus Reagent was used to generate PC3 cells expressing human PRLR (PC3/hPRLR) or human ErbB2 (PC3/hErbB2). Lentiviral-mediated transduction was utilized to generate MCF7 cells expressing human PRLR (MCF7/hPRLR), NCI-N87 cells expressing human PRLR (NCI-N87/hPRLR), T47D cells over-expressing human ErbB2 (T47D/hErbB2), and MCF7 cells expressing both human PRLR and human ErbB2 (MCF7/hPRLR/hErbB2). All lines were selected for at least two weeks in complete growth media plus appropriate selection reagents. Stably expressing populations were enriched for PRLR expression via FACS using the anti PRLR antibody Control I.
(§2) Next, the ability of anti-PRLR-DM1 antibody-drug conjugates (i.e., anti-PRLR antibodies conjugated to DM1 via a non-cleavable linker [SMCC]) to reduce cell viability was determined using in vitro cell based assays. Cells were seeded in PDL-coated 96 well plates at 1500 to 10000 cells per well in complete growth media and allowed to grow overnight. For cell viability curves, ADCs or free DM1 (as the methyl disulfide derivative DM1-SMe) were added to the cells at final concentrations ranging from 500 nM to 5 pM and incubated for 3 days. The 293, PC3 and T47D cells were incubated with CCK8 (Dojindo, Rockville, Md.) for the final 1-3 hours and the absorbance at 450 nm (OD450) was determined on a Flexstation3 (Molecular Devices, Sunnyvale, Calif.). MCF7 cells were treated with Hoechst 33342 nuclear stain while being fixed with 4% formaldehyde. Images were acquired on the ImageXpress micro XL (Molecular Devices, Sunnyvale, Calif.) and nuclear counts were determined via Columbus image analysis software (Perkin Elmer, Shelton, Conn.). Background OD450 values (PC3, 293, and T47D) or nuclear counts (MCF7) from digitonin (40 nM) treated cells was subtracted from all wells and viability was expressed as a percentage of the untreated controls. IC50 values were determined from a four-parameter logistic equation over a 10-point response curve (GraphPad Prism).

MCF7 (MCF7/ATCC) cells = test: as above; type: cell-based, human; conditions: MCF7/ATCC; Table 20
From the text: as §1, §2

HEK293 (293) cells = test: In vitro cell viability (cell kill) assay, CCK8; type: cell-based, human
From the text: as §1, §2

T47D cells = test: In vitro cell viability (cell kill) assay, CCK8; type: cell-based, human; conditions: T47D; for IC50: read-out: IC50
Protocol: as §2

PRLR expressing cells = test: In vitro cell viability (cell kill) assay, several cell backgrounds; type: cell-based, human; conditions: PC3/hPRLR and MCF7/hPRLR cell lines
From the text: as §1, §2

PC3 cells = test: In vitro cell viability (cell kill) assay, CCK8; type: cell-based, human
From the text: as §1, §2

PC3/PRLR tumors = test: PC3/PRLR xenograft, tumor size and tumor growth inhibition; type: in vivo, SCID mice; conditions: PC3/PRLR tumors TRIAL #2, SCID mice, Day 55
From the text: (§3) Briefly, 20×10^6 MCF7/PRLR cells (ATCC HTB-22 transfected with full length hPRLR as previously described) were implanted subcutaneously into the left mammary fat pad of female NCr nude mice. In other studies, 10×10^6 PC3/PRLR (ATCC CRL-1435 transfected with full length hPRLR as previously described) were implanted subcutaneously into the left flank of male SCID mice. Additionally, 10×10^6 parental T47D (ATCC HTB-133) or 7.5×10^10 T47D #11 cells (ATCC HTB-133 serially passaged in vivo as described below) were subcutaneously implanted into the left flank of female CB17 SCID mice. All mice were obtained from Taconic (Hudson, N.Y.). Each bolus of cells was supplemented with a 90-day estrogen release pellet (1.7 mg/pellet; Innovative Research America, Sarasota Fla.). […] Control reagents included PBS vehicle, free methyl-disulfide DM1 (DM1-SMe) and isotype Control 1-DM1.
(§4) In multi-dose studies, mice were dosed once a week for a total of three weeks with tumor volumes and body weights being monitored twice weekly throughout the study. Test ADCs were dosed at 5 and/or 15 mg/kg in the multi-dose studies. In single-dose studies, mice received a single dose of test ADC, and tumor volumes and body weights were monitored twice weekly throughout the study. Test ADCs were dosed at 1, 2.5, 5, and 15 mg/kg in the single-dose studies. Average tumor size as well as tumor growth inhibition relative to the vehicle treated group were calculated for each group. Tumors were measured with calipers twice a week until the average size of the vehicle group reached 1000 mm^3. Tumor size was calculated using the formula (length×width^2)/2. Tumor growth inhibition was calculated according to the following formula: (1−((Tfinal−Tinitial)/(Cfinal−Cinitial)))*100, where T (treated group) and C (control group) represent the mean tumor mass on the day the vehicle group reached 1000 mm^3. […] Results are summarized in Tables 21-25 (multi-dose) and Table 26 (single dose). (NT=not tested in the particular experiment shown).

MCF7/PRLR tumors = test: MCF7/PRLR breast cancer xenograft, tumor size and tumor growth inhibition; type: in vivo, NCr nude mice; conditions: MCF7/PRLR tumors TRIAL #2, NCr Nude mice, Day 63
From the text: as §3, §4

T47D#11 tumors = type: in vivo, CB17 SCID mice
From the text: as §3, §4

[2] = T47D#11 tumors, SCID mice, multi-dose 15 mg/kg, Day 66

## COc1cc2cc(c1Cl)N(C)C(=O)C[C@H](OC(=O)[C@H](C)N(C)C(=O)CCC(C)(C)S)[C@]1(C)O[C@H]1[C@H](C)[C@@H]1C[C@@](O)(NC(=O)O1)[C@H](OC)/C=C/C=C(\C)C2 [Free DM4]
[1]
  % Kill: 90%
  IC50: 2000 pM
MCF7 (MCF7/ATCC) cells
  % Kill: 90%
  IC50: 1300 pM
HEK293 (293) cells; 293, Table 19
  % Kill: 100%
  IC50: 600 pM
T47D cells; Table 19
  % Kill: 100%
  IC50: 500 pM

## COc1cc2cc(c1Cl)N(C)C(=O)C[C@H](OC(=O)[C@H](C)N(C)C(=O)CCSSC)[C@]1(C)O[C@H]1[C@H](C)[C@@H]1C[C@@](O)(NC(=O)O1)[C@H](OC)/C=C/C=C(\C)C2 [Me-SS-May Free DM1]
HEK293 (293) cells; HEK293, Table 13, without PRL
  % Kill: 94%
  IC50: 600 pM
T47D cells; Table 13, without PRL
  % Kill: 100%
  IC50: 300 pM

B1: H1H6953-mc-vc-PAB-MMAE (conjugate)
VH: EVQLLESGGGLVQPGGTLRLSCAASGFTFSAYAMSWVRQAPGKGLEWVSSINVRAGDTYYADSVKGRFTISRDNSKNTLFLLMNSLRAEDTAAYYCAKARYSSNWGFDFWGQGTLVTVSS
VL: DIVMTQSPDSLTVSLGARTTINCQSSQTILHSSNNHNYLAWYQQKPGLPPKLLIYWSSTRESGVPDRFSGSGSGTDFTLTISSLQAEDVAIYYCQQYSNTPYTFGQGTKLEIN
PRLR expressing cells
  cell killing, non-cleavable DM1 ADCs versus cleavable MMAE ADCs: nearly equivalent cell killing

B2: H1H6958N2-mc-VC-PAB-MMAE (conjugate)
VH: QVQLVESGGGVVQPGRSLRLSCGASGFTFRNYGMQWVRQGPGKGLEWVTLISFDGNDKYYADSVKGRFTISRDNSKNTLFLQMNSLRTEDTAVYYCARGGDFDYWGQGTLVTVSS
VL: DIQMTQSPSSLSASVGDRVTITCRASQDIRKDLGWYQQKPGKAPKRLIYAASSLHSGVPSRFSGSGSGTEFTLTISSLQPEDFATYYCLQHNSYPMYTFGQGTKLEIK
PC3 cells; Table 18
  % Kill: 39%
PRLR expressing cells
  cell killing, non-cleavable DM1 ADCs versus cleavable MMAE ADCs: nearly equivalent cell killing

B3: H1H6765-mc-VC-PAB-MMAE (conjugate)
VH: EVQLVESGGGVVRPGGSLRLSCVGSGFSFDDHGMNWVRQGPGKGLEWVSGFNWNGGSTNYAESVKGRFTISRDNARNSLFLQMNSLRAEDTALYYCVRGRSGWFNDAFDVWGPGTMVTVSS
VL: EIVLTQSPGTLSLSPGERATLSCRASQTINSNYLAWYRQKPGQTPRLLIYGTSSRATGIPDRFSGSGSGTDFSLTISRLEPEDFAVFYCQQYAGLPTFGPGTKVDIK
PRLR expressing cells
  cell killing, non-cleavable DM1 ADCs versus cleavable MMAE ADCs: nearly equivalent cell killing

B4: H1H6782P-DM1: anti-PRLR antibody H1H6782P conjugated to DM1 through an SMCC linker (conjugate)
VH: EVQLVESGGGLVQPGRSLRLSCAASGFTFDDYAMHWVRQAPGKGLEWVSGIIWNSGHIGYGDSVKGRFTISRDNAKKSLYLQMNSLRAEDTALYYCARDSGRYQSYFDYWGQGTLVTVSS
VL: DIQMTQSPSTLSASVGDRVTITCRASHIISSWLAWYQQKPGKAPKVLIFKASSLESGVPSRFSGSGSGTEFTLTISSLQPDDFATYYCQQYNTYSRTFGQGTKVEIK
PC3/PRLR tumors; multi-dose 5 mg/kg
  Average Tumor Growth Inhibition (%): 69%
  Final Tumor size mm^3 (mean ± SEM): 490 ± 63 mm^3
PC3/PRLR tumors; multi-dose 15 mg/kg
  Final Tumor size mm^3 (mean ± SEM): 321 ± 33 mm^3
MCF7/PRLR tumors; multi-dose 5 mg/kg
  Average Tumor Growth Inhibition (%): 123%
MCF7/PRLR tumors; multi-dose 15 mg/kg
  Average Tumor Growth Inhibition (%): 137%
HEK293 (293) cells; 293, Table 11, 3 days
  % Kill: 86%
PC3 cells; Table 11, 3 days
  % Kill: 67%
T47D#11 tumors; T47D#11 tumors, SCID mice, multi-dose 5 mg/kg, Day 66
  Final Tumor size mm^3 (mean ± SEM): 293 ± 20 mm^3
T47D#11 tumors; [2]
  Average Tumor Growth Inhibition (%): 106%
  Final Tumor size mm^3 (mean ± SEM): 124 ± 36 mm^3
T47D#11 tumors; repeat dosing 5 and 15 mg/kg
  T47D #11 tumor growth: potently inhibited tumor growth
